“Also recorded” adds a separate entry of the source. Blank lines part the entries; values can stand above or below the molecule they belong to.
Experiments:
[1] = target: T1, DPP3 (Homo sapiens, UniProt Q9NY33); conditions: literature; cited from earlier work
T1 sequence (Q9NY33 1-737): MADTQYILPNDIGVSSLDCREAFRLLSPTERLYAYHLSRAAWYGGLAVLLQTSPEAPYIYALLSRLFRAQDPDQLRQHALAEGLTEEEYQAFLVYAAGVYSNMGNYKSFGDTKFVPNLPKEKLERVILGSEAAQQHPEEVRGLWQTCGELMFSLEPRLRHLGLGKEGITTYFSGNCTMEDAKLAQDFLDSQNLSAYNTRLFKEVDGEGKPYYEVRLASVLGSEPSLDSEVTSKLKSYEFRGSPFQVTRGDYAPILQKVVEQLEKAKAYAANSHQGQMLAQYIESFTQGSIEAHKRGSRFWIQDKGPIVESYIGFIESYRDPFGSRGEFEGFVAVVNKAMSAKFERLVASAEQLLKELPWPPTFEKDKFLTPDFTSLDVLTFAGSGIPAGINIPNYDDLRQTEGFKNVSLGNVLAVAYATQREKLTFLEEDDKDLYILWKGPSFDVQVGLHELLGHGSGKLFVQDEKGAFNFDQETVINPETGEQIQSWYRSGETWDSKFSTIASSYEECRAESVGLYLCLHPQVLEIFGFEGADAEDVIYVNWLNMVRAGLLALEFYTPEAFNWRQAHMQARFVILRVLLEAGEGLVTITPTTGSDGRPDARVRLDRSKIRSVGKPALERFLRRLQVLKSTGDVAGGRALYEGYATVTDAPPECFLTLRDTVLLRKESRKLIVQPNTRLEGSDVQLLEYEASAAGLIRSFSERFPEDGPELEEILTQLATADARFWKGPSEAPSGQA

[2] = tested on: healthy mice injected with DPP3; assay: Effect of Valsartan in healthy mice injected with DPP3; type: in vivo, Black 6 mice
Procedure: In this experiment, healthy Black 6 mice (8-12 weeks, group size refer to table 8) consumed water with 50 mg/kg Valsartan per day or just water (Table 8) for a period of two weeks. Subsequently, both groups received an intravenous injection of native DPP3 (600 μg/kg) and the shortening fraction was assessed according to Gao et al., 2011 at 15, 60 and 120 minutes (FIG. 12).

[3] = tested on: healthy mice; assay: Effect of native DPP3 injection in healthy mice; type: in vivo, Black 6 mice; conditions: 600 μg/kg i.v., versus PBS
Procedure: Wild type Black 6 mice (8-12 weeks, group size refer to table 3) were acclimated during 2 weeks and a baseline echocardiography was done. The mice were randomly allocated to one of the two groups and, subsequently, native DPP3 protein or PBS were injected intravenously via a retro-orbital injection with a dose of 600 μg/kg for DPP3 protein.
After DPP3 or PBS injection, cardiac function was assessed by echocardiography (Gao et al. 2011) and renal function assessed by renal resistive index (Lubas et al., 2014, Dewitte et al, 2012) at 15, 60 and 120 minutes (FIG. 3).

[4] = target: T2, native human DPP3 from blood cells (human, UniProt Q9NY33 2-737); assay: cell-based or functional assay
T2 sequence: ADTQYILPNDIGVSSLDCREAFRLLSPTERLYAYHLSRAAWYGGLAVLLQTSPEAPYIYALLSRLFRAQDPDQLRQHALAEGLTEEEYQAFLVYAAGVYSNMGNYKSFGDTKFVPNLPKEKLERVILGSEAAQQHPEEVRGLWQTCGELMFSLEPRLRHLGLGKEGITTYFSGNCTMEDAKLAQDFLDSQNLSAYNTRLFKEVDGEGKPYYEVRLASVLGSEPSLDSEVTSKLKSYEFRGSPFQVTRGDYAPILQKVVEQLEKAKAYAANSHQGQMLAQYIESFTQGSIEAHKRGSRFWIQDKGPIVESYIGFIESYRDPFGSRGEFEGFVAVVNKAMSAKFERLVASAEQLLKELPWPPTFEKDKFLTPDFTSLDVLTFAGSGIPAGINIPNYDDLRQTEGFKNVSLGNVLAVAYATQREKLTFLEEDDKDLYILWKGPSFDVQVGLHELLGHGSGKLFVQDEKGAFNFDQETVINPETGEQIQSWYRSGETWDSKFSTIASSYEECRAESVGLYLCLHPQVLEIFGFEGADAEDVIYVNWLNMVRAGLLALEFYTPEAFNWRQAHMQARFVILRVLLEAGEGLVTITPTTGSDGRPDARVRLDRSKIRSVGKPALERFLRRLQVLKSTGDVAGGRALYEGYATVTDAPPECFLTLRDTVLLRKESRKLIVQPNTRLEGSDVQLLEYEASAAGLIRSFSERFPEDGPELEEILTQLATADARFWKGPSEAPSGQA

Molecule: Cc1cc(=O)c2c(cc(O)c3c4c(O)cccc4c(=O)c32)c1=O [Fluostatin A]
inhibition of DPP3 activity [1]: strongly inhibit DPP3 activity

Molecule: CC1C(=O)c2cc(O)c3c(c2C(O)C1O)C(=O)c1cccc(O)c1-3 (stereo not drawn) [Fluostatin B]
inhibition of DPP3 activity [1]: strongly inhibit DPP3 activity

Molecule: CCCCC(=O)N(Cc1ccc(-c2ccccc2-c2nnn[nH]2)cc1)[C@H](C(=O)O)C(C)C [Valsartan]
shortening fraction after DPP3 injection ([2]; 50 mg/kg Valsartan per day in water for two weeks, then native DPP3 600 μg/kg i.v.): rescued; also recorded: no signs of heart dysfunction

B1: native DPP3: native human DPP3 purified from human erythrocyte lysate (protein)
chain: T2 sequence
shortening fraction after DPP3 injection ([2]; native DPP3 600 μg/kg i.v., no Valsartan): significant decrease in the shortening fraction
renal resistive index [3]: renal resistive index increase
shortening fraction [3]: significantly reduced shortening fraction
renal resistive index ([3]; listed as DPP3): increased renal resistive index
shortening fraction ([3]; listed as DPP3): shortening fraction reduction

IC50 (read off the curve) [4]: ~10 ng/mL
B2: murine monoclonal anti-DPP3 antibody AK1967 (antibody, V domains shown)
VH: QVTLKESGPGILQPSQTLSLTCSFSGFSLSTSGMSVGWIRQPSGKGLEWLAHIWWNDNKSYNPALKSRLTISRDTSNNQVFLKIASVVTADTGTYFCARNYSYDYWGQGTTLTVSS
VL: DVVVTQTPLSLSVSLGDPASISCRSSRSLVHSIGSTYLHWYLQKPGQSPKLLIYKVSNRFSGVPDRFSGSGSGTDFTLKISRVEAEDLGVYFCSQSTHVPWTFGGGTKLEIK

Source: patent US20260201067A1, “DPP3 INHIBITOR FOR IMPROVEMENT OF PULMONARY FUNCTION IN CRITICALLY ILL PATIENTS” (4TEEN4 Pharmaceuticals GmbH, priority 2022, published 2026)
